Source: US20250304644A1, “PEPTIDES TRIPLE AGONISTS OF GIP, GLP-1 AND GLP-2” (BAINAN BIOTECH APS, priority 2021, published 2025)
*1 amine or outer side, *2 acyl side, *3 side chain or, on linkers, in order; H or OH if unused. Where no end group is shown, it is not given here. Side-chain parts run from the residue outwards. [ ]: non-standard residue; d: D form. The star is where a group is joined. C18 diacid = O=C(O)CCCCCCCCCCCCCCCCC(=O)*; γGlu = O=C(O)[C@H](CCC(=O)[*:2])N[*:1]; AEEA = NCCOCCOCC(=O)O; Aib = CC(C)(N)C(=O)O

T1: human GLP-2R (glucagon-like peptide-2 receptor) (human, UniProt O95838 1-553)
T1 sequence (looked up): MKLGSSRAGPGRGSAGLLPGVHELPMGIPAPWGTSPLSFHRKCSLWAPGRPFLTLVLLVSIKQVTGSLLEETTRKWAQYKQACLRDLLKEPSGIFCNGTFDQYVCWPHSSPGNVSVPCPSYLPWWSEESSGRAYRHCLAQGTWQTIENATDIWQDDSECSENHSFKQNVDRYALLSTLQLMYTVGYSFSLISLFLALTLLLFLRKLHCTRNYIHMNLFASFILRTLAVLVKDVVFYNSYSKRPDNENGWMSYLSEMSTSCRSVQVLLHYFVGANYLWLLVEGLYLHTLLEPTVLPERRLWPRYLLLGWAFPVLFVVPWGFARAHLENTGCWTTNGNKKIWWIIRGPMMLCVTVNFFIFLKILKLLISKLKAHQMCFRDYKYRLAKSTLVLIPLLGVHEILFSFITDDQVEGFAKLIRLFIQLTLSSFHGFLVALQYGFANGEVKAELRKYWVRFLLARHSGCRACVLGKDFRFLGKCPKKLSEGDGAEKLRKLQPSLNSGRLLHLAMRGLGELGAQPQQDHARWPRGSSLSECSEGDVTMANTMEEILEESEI

T2: Human N-terminally SNAP-tagged GIPR (human, UniProt P48546 22-466, SNAP tag labeled with Tag-Lite SNAP-Lumi4-Tb)
T2 sequence (looked up): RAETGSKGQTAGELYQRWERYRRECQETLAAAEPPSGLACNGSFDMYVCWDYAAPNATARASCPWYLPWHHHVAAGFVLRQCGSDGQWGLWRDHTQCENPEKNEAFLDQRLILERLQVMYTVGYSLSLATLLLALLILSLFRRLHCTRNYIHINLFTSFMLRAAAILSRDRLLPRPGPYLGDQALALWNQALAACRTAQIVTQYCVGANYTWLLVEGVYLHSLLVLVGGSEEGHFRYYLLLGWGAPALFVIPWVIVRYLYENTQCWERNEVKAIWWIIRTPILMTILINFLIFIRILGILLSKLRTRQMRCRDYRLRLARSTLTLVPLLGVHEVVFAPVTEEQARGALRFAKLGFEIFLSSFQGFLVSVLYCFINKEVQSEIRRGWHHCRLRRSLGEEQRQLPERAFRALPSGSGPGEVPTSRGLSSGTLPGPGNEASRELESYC

T3: human SNAP-tagged GLP-2R (human, UniProt O95838 1-553, SNAP tag labeled with Tag-Lite SNAP-Lumi4-Tb)
T3 sequence (looked up): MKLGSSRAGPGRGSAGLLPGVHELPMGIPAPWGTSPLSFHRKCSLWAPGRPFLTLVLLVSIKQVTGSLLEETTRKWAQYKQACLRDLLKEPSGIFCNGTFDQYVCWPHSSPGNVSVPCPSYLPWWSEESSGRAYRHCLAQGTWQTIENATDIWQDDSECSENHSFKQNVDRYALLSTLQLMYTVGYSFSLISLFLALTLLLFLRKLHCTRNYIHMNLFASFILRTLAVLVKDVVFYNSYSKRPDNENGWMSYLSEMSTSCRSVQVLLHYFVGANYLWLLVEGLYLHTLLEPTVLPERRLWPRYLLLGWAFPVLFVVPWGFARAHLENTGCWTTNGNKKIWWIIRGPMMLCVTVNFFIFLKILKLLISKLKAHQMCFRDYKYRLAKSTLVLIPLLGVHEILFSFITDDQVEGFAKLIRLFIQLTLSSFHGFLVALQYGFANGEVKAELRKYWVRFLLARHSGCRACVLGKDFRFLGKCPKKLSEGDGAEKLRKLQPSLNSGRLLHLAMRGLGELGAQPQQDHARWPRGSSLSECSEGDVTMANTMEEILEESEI

T4: human GIPR (glucose-dependent insulinotropic polypeptide receptor) (human, UniProt P48546 22-466)
T4 sequence (looked up): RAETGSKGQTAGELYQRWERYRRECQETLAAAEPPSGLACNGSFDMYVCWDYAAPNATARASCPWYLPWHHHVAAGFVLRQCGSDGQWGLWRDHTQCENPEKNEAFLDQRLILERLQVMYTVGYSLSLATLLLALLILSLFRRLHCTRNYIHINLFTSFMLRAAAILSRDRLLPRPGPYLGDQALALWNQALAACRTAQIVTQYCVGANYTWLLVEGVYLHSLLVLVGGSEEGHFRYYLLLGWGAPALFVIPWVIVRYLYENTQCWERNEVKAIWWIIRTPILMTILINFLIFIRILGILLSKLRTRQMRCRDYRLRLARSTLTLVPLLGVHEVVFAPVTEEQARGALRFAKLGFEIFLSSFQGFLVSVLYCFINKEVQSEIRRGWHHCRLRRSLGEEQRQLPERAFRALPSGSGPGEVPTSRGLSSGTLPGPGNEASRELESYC


Tests used:
Assay in all cases: cell-based or functional assay
[1] = molecular target: human glucagon receptor (GCGR) (human, UniProt P47871 26-477, limits assumed)
Chain of human glucagon receptor (GCGR) (P47871 26-477 limits assumed): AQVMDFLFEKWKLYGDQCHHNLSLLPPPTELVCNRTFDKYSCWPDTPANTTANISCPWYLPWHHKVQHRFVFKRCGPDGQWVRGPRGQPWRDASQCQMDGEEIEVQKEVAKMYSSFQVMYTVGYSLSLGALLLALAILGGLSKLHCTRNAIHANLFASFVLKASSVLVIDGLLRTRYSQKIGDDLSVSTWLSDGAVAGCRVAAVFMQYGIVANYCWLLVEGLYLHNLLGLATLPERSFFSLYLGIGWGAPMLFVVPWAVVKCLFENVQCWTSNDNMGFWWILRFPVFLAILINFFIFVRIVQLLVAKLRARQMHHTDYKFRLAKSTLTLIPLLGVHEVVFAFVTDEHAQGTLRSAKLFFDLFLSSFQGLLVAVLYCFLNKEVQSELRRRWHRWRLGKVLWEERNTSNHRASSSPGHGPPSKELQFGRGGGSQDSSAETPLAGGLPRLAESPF

[2] = molecular target: T1, human GLP-2R (glucagon-like peptide-2 …)
[3] = molecular target: human GLP-1R (glucagon-like peptide-1 receptor) (human, UniProt P43220 24-463)
[4] = molecular target: T2, Human N-terminally SNAP-tagged GIPR
human SNAP-tagged GLP-1R = human SNAP-tagged GLP-1R (human, UniProt P43220 24-463, SNAP tag labeled with Tag-Lite SNAP-Lumi4-Tb)
human SNAP-tagged GLP-2R = molecular target: T3, human SNAP-tagged GLP-2R
[5] = molecular target: T4, human GIPR (glucose-dependent …)

Row | Binder | potency in Gs activation, measured as cAMP accumulation (-p Log EC50) [1] | EC50 (nM) GLP-2R [2] | Efficacy GLP-2R [2] | logEC50 GLP-2R [2] | EC50 (nM) GLP-1R [3] | Efficacy GLP-1R [3] | logEC50 GLP-1R [3] | Absolute hGIPR internalization (AUC) [4] | Relative hGIPR internalization (%) [4] | Absolute hGLP-1R internalization (AUC) (human SNAP-tagged GLP-1R) | Relative hGLP-1R internalization (%) (human SNAP-tagged GLP-1R) | Absolute hGLP-2R internalization (AUC) (human SNAP-tagged GLP-2R) | Relative hGLP-2R internalization (%) (human SNAP-tagged GLP-2R) | EC50 (nM) GIPR [5] | Efficacy GIPR [5] | pEC50 GIPR [5]
1 | HADGTFTSDYSIILDK([AEEA-AEEA-γGlu-C18 diacid])LAARDFINWLIQTKGKKNDWKHNITQ-OH [Compound 20] | < 7 -p Log EC50 | 0.3 nM | 100 | 9.5 | 0.04 nM | 112 | 10.4 | 14.2 AUC | 38% | 91.8 AUC | 109% | 39.4 AUC | 81% | – | – | –
2 | HADGTFTSDYST[Aib]LDK([AEEA-AEEA-γGlu-C18 diacid])LAARDFINWLIQTKGKKNDWKHNITQ-OH [Compound 22] | < 7 -p Log EC50 | 0.6 nM | 93 | 9.3 | 0.04 nM | 116 | 10.5 | 7 AUC | 19% | 78.8 AUC | 93.7% | 38 AUC | 78.2% | 1.12 nM | 93 | 9
3 | HADGTFTSDYSTILDK([AEEA-AEEA-γGlu-C18 diacid])LAARDFINWLIQTKGKKNDWKHNITQ-OH [Compound 21] | < 7 -p Log EC50 | 0.6 nM | 104 | 9.2 | 0.05 nM | 122 | 10.3 | 10.2 AUC | 28% | 94.7 AUC | 113% | 36.3 AUC | 74.6% | 0.398 nM | 104 | 9.4
